Results reported in publication doi:10.1101/2025.03.07.641123.

Experiments:
[1] = molecular target: TW1 (DtxR-Geminin coiled-coil-SpyCatcher) (UniProt P0DJL7); assay: mass photometry
[2] = molecular target: TW2 (TrpR-Geminin coiled-coil-SpyTag-Geminin coiled-coil-MetJ) (UniProt P0A881); assay: mass photometry

Row | stoichiometry N [1] | Substance | stoichiometry N [2]
1 | 2 | TW1 (DtxR-Geminin coiled-coil-SpyCatcher) (from UniProt P0DJL7 2-121; O75496 110-145) | –
2 | – | TW2 (TrpR-Geminin coiled-coil-SpyTag-Geminin coiled-coil-MetJ) (from UniProt P0A881 2-108; O75496 110-145; O75496 110-145; P0A8U6 2-105) | 2
